Data taken from PMC7480107.

Biological target: F-actin (rabbit muscle actin, polymerized) (rabbit) (UniProt P68135)
Test: co-sedimentation

Row | Substance | percent of the protein in the pellet with F-actin
1 | Pav-HEAD (1-500 aa) (domain or fragment) | 84%
2 | Pav^DEAD-HEAD (1-500 aa with G131E mutation) (domain or fragment) | 87%
